Data from patent EP4424820A1.

Biological target: NRPS-13 subunit B: SZ18 at the N-terminus of the C-terminal part of XtpS, split in the A-T linker of module two (Xenorhabdus nematophila ATCC 19061)
Test: cell-based or functional assay

Chain of NRPS-13 subunit B: SZ18 at the N-terminus of the C-terminal part of XtpS, split in the A-T linker of module two (Xenorhabdus nematophila ATCC 19061) (chain, as listed by the source): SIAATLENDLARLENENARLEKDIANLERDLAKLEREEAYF

“NRPS-13 subunit A: N-terminal part of XtpS, split in the A-T linker of module two, with SZ17 at its C-terminus (enzyme)” showed a peptide yield of xenotetrapeptide 1 by the split synthetase NRPS-13 produced in E. coli DH10B::mtaA (HPLC-MS/MS) of 155 mg/L.
